Each block holds one molecule with its values, some of them ahead of it.
Columns and labels:
3×MBT domain of L3MBTL1 = test: Triple SILAC pull-down, 3xMBT/3xMBTD355N ratio (cytoplasmic, nuclear and chromatin fractions of 293T cells); format: binding, human; conditions: for 3xMBT/D355N UNC Heavy: experiment with UNC0638 in heavy SILAC media; for 3xMBT/D355N UNC Light: experiment with UNC0638 in light SILAC media;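 for all read-outs here: proteins quantified with MaxQuant, requiring at least two unique peptides and quantification in both label directions, normalized to the mean of proteins from a digested loading control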
G9a and GLP = molecular target: T1, G9a and GLP (Homo sapiens, UniProt Q96KQ7+Q9H9B1); test: Triple SILAC pull-down after UNC0638 treatment of 293T cells, DMSO/UNC0638 ratio of protein captured by 3×MBT; format: cell-based; set-up: endogenous in cells; host or cells: HEK 293T; conditions: for Relative to UNC0638 UNC Heavy: UNC0638 in heavy SILAC media; for Relative to UNC0638 UNC Light: UNC0638 in light SILAC media; for Relative to UNC0638 Average: average of UNC Light and UNC Heavy experiments;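 for all read-outs here: mass spectrometry (Q-Exactive) SILAC quantitation, DMSO/UNC0638 ratio computed after subtracting 3×MBTD355N mutant pull-down background, only proteins with at least twofold 3×MBT over mutant signal considered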
T1 sequence (Q96KQ7 2-1210 limits assumed): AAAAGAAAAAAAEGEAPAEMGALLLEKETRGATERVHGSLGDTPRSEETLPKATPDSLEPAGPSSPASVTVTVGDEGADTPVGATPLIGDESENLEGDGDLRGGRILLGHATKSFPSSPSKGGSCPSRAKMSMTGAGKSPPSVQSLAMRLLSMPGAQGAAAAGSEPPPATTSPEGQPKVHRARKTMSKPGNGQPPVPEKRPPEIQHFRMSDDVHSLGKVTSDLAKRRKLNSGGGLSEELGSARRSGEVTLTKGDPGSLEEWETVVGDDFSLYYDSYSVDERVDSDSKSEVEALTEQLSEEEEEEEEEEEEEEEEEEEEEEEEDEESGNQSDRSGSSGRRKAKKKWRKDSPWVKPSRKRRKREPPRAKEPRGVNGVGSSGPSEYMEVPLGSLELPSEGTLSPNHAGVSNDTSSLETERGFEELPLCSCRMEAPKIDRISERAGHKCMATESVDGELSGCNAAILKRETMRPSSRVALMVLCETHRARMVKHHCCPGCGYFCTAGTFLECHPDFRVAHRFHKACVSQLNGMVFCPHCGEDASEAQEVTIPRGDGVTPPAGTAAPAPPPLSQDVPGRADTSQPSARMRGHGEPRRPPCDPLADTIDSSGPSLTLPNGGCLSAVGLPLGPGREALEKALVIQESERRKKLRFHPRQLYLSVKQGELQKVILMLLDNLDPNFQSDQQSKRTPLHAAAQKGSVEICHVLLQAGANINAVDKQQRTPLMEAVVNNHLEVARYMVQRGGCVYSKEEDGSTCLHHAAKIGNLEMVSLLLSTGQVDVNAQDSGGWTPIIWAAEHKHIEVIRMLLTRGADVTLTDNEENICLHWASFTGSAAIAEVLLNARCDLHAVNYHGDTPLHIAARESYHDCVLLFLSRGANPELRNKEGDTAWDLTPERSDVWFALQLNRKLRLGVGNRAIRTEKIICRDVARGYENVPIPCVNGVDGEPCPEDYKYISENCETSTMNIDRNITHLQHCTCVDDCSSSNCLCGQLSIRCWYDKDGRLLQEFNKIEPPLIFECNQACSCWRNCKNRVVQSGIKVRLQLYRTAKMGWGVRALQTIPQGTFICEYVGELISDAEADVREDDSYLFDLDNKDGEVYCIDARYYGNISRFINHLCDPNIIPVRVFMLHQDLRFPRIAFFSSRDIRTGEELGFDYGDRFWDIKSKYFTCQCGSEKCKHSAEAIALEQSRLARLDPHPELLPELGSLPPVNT
T1 sequence (Q9H9B1 2-1298 limits assumed): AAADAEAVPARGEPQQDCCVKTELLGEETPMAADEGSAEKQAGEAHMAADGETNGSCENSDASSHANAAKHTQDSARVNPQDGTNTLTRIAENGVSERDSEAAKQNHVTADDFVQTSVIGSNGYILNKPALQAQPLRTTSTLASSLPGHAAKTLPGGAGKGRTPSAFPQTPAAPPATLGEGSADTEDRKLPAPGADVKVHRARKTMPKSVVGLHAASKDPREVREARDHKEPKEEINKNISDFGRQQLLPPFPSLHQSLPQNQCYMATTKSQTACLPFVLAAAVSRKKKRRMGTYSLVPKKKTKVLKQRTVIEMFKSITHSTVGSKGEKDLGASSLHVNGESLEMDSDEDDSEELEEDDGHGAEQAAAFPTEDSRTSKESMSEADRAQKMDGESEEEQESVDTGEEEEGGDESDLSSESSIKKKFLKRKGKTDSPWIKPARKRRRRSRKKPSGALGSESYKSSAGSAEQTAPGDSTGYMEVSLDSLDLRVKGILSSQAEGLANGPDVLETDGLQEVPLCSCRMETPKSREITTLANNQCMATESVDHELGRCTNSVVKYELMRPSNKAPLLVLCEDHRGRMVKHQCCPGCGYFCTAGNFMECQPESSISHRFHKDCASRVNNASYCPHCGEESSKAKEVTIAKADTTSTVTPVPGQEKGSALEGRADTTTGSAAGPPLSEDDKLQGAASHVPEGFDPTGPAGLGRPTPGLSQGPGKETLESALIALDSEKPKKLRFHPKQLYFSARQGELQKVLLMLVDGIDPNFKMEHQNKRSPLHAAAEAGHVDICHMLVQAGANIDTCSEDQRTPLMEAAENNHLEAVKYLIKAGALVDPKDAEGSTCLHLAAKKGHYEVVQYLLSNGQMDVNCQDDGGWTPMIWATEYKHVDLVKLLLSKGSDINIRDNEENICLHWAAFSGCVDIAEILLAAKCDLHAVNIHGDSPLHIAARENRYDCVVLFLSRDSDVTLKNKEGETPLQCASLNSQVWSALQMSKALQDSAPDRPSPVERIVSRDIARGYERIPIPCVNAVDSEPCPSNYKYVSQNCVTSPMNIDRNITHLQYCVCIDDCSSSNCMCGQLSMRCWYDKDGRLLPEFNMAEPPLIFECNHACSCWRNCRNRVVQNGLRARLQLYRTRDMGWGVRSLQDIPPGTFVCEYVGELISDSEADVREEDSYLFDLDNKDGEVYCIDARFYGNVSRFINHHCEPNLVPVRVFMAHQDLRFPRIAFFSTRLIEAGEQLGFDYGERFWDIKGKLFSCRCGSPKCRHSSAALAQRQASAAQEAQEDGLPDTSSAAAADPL

[1] = SILAC ratio, pull-down 3xMBT vs 3xMBTD355N
[2] = SILAC ratio DMSO/UNC0638 of protein pulled down with 3xMBT
[3] = SILAC ratio 3xMBT vs 3xMBTD355N pull-down, 293T cells, all values in log base 2
[4] = SILAC ratio DMSO relative to UNC0638, pull-down with 3xMBT, all values in log base 2

B1: PPIL4 (protein, UniProt Q8WUA2 1-492, looked up)
Peptidyl-prolyl cis-trans …: MAVLLETTLGDVVIDLYTEERPRACLNFLKLCKIKYYNYCLIHNVQRDFIIQTGDPTGTGRGGESIFGQLYGDQASFFEAEKVPRIKHKKKGTVSMVNNGSDQHGSQFLITTGENLDYLDGVHTVFGEVTEGMDIIKKINETFVDKDFVPYQDIRINHTVILDDPFDDPPDLLIPDRSPEPTREQLDSGRIGADEEIDDFKGRSAEEVEEIKAEKEAKTQAILLEMVGDLPDADIKPPENVLFVCKLNPVTTDEDLEIIFSRFGPIRSCEVIRDWKTGESLCYAFIEFEKEEDCEKAFFKMDNVLIDDRRIHVDFSQSVAKVKWKGKGGKYTKSDFKEYEKEQDKPPNLVLKDKVKPKQDTKYDLILDEQAEDSKSSHSHTSKKHKKKTHHCSEEKEDEDYMPIKNTNQDIYREMGFGHYEEEESCWEKQKSEKRDRTQNRSRSRSRERDGHYSNSHKSKYQTDLYERERSKKRDRSRSPKKSKDKEKSKYR
- 3xMBT/D355N UNC Heavy (3×MBT domain of L3MBTL1; [1]): 1.63 log base 2
- 3xMBT/D355N UNC Light (3×MBT domain of L3MBTL1; [1]): 2.38 log base 2
- Relative to UNC0638 UNC Heavy (G9a and GLP; [2]): 0.46 log base 2
- Relative to UNC0638 UNC Light (G9a and GLP; [2]): 0.50 log base 2
- Relative to UNC0638 Average (G9a and GLP): 0.48 log base 2
- Candidate G9a/GLP target (G9a and GLP; reduced association with 3xMBT after UNC0638 treatment): ✓

B3: RAD21 (protein, UniProt O60216 1-631, looked up)
Double-strand-break repair …: MFYAHFVLSKRGPLAKIWLAAHWDKKLTKAHVFECNLESSVESIISPKVKMALRTSGHLLLGVVRIYHRKAKYLLADCNEAFIKIKMAFRPGVVDLPEENREAAYNAITLPEEFHDFDQPLPDLDDIDVAQQFSLNQSRVEEITMREEVGNISILQENDFGDFGMDDREIMREGSAFEDDDMLVSTTTSNLLLESEQSTSNLNEKINHLEYEDQYKDDNFGEGNDGGILDDKLISNNDGGIFDDPPALSEAGVMLPEQPAHDDMDEDDNVSMGGPDSPDSVDPVEPMPTMTDQTTLVPNEEEAFALEPIDITVKETKAKRKRKLIVDSVKELDSKTIRAQLSDYSDIVTTLDLAPPTKKLMMWKETGGVEKLFSLPAQPLWNNRLLKLFTRCLTPLVPEDLRKRRKGGEADNLDEFLKEFENPEVPREDQQQQHQQRDVIDEPIIEEPSRLQESVMEASRTNIDESAMPPPPPQGVKRKAGQIDPEPVMPPQQVEQMEIPPVELPPEEPPNICQLIPELELLPEKEKEKEKEKEDDEEEEDEDASGGDQDQEERRWNKRTQQMLHGLQRALAKTGAESISLLELCRNTNRKQAAAKFYSFLVLKKQQAIELTQEEPYSDIIATPGPRFHII
- 3xMBT/D355N UNC Heavy (3×MBT domain of L3MBTL1; [3]): 2.15 log base 2
- 3xMBT/D355N UNC Light (3×MBT domain of L3MBTL1; [3]): 1.49 log base 2
- Relative to UNC0638 UNC Heavy (G9a and GLP; [4]): 0.07 log base 2
- Relative to UNC0638 UNC Light (G9a and GLP; [4]): 0.08 log base 2
- Relative to UNC0638 Average (G9a and GLP; all values in log base 2): 0.07 log base 2

Further lines, with some results ahead:

- Relative to UNC0638 UNC Heavy (G9a and GLP; [4]): 0.03 log base 2
- Relative to UNC0638 UNC Light (G9a and GLP; [4]): 0.07 log base 2
- Relative to UNC0638 Average (G9a and GLP; all values in log base 2): 0.05 log base 2
B2: PUF60 (protein, UniProt Q9UHX1 1-559, looked up)
Poly(U)-binding-splicing …: MATATIALQVNGQQGGGSEPAAAAAVVAAGDKWKPPQGTDSIKMENGQSTAAKLGLPPLTPEQQEALQKAKKYAMEQSIKSVLVKQTIAHQQQQLTNLQMAAVTMGFGDPLSPLQSMAAQRQRALAIMCRVYVGSIYYELGEDTIRQAFAPFGPIKSIDMSWDSVTMKHKGFAFVEYEVPEAAQLALEQMNSVMLGGRNIKVGRPSNIGQAQPIIDQLAEEARAFNRIYVASVHQDLSDDDIKSVFEAFGKIKSCTLARDPTTGKHKGYGFIEYEKAQSSQDAVSSMNLFDLGGQYLRVGKAVTPPMPLLTPATPGGLPPAAAVAAAAATAKITAQEAVAGAAVLGTLGTPGLVSPALTLAQPLGTLPQAVMAAQAPGVITGVTPARPPIPVTIPSVGVVNPILASPPTLGLLEPKKEKEEEELFPESERPEMLSEQEHMSISGSSARHMVMQKLLRKQESTVMVLRNMVDPKDIDDDLEGEVTEECGKFGAVNRVIIYQEKQGEEEDAEIIVKIFVEFSIASETHKAIQALNGRWFAGRKVVAEVYDQERFDNSDLSA
- 3xMBT/D355N UNC Heavy (3×MBT domain of L3MBTL1; [3]): 1.71 log base 2
- 3xMBT/D355N UNC Light (3×MBT domain of L3MBTL1; [3]): 2.61 log base 2

- Relative to UNC0638 UNC Heavy (G9a and GLP; [4]): 0.21 log base 2
- Relative to UNC0638 UNC Light (G9a and GLP; [4]): −0.06 log base 2
- Relative to UNC0638 Average (G9a and GLP; all values in log base 2): 0.07 log base 2
B4: STRBP (protein, UniProt Q96SI9 1-672, looked up)
Spermatid perinuclear …: MRSIRSFANDDRHVMVKHSTIYPSPEELEAVQNMVSTVECALKHVSDWLDETNKGTKTEGETEVKKDEAGENYSKDQGGRTLCGVMRIGLVAKGLLIKDDMDLELVLMCKDKPTETLLNTVKDNLPIQIQKLTEEKYQVEQCVNEASIIIRNTKEPTLTLKVILTSPLIRDELEKKDGENVSMKDPPDLLDRQKCLNALASLRHAKWFQARANGLKSCVIVLRILRDLCNRVPTWAPLKGWPLELICEKSIGTCNRPLGAGEALRRVMECLASGILLPGGPGLHDPCERDPTDALSYMTIQQKEDITHSAQHALRLSAFGQIYKVLEMDPLPSSKPFQKYSWSVTDKEGAGSSALKRPFEDGLGDDKDPNKKMKRNLRKILDSKAIDLMNALMRLNQIRPGLQYKLLSQSGPVHAPVFTMSVDVDGTTYEASGPSKKTAKLHVAVKVLQAMGYPTGFDADIECMSSDEKSDNESKNETVSSNSSNNTGNSTTETSSTLEVRTQGPILTASGKNPVMELNEKRRGLKYELISETGGSHDKRFVMEVEVDGQKFRGAGPNKKVAKASAALAALEKLFSGPNAANNKKKKIIPQAKGVVNTAVSAAVQAVRGRGRGTLTRGAFVGATAAPGYIAPGYGTPYGYSTAAPAYGLPKRMVLLPVMKFPTYPVPHYSFF
- 3xMBT/D355N UNC Heavy (3×MBT domain of L3MBTL1; [3]): 2.70 log base 2
- 3xMBT/D355N UNC Light (3×MBT domain of L3MBTL1; [3]): 3.07 log base 2
